The target in this assay is HA-tagged mutant (Leu15) AP2σ2 subunit (human) (human) (UniProt P53680). The experiment in a line: co-IP; lysates of HEK293 cells stably expressing FLAG-CaSR with HA-tagged WT or Leu15 AP2σ2; anti-HA-sepharose beads 2 h; blots with anti-AP2α, anti-AP2β2 and anti-AP2μ2 for the endogenous subunits; lysis buffer 0.5% NP40, 135 mM NaCl, 20 mM Tris pH 7.5, 1 mM EDTA.

This note sets out measurements from publication PMC8165646.

Some results are limits rather than exact numbers.

Regarding “AP2α subunit, endogenous in HEK293 (from UniProt O95782 1-977) (natural protein)”, the reduction of the subunit in the HA-AP2σ2 immunoprecipitate, Leu15 cells against WT cells is above 50%.
